{
  "source": "patent US20250361274A1",
  "about": "“PEPTIDE AND PEPTIDE-CONTAINING AGENT” (PEPTIDREAM INC., priority 2022, published 2025)",
  "key": {"BMP4": {"biological_target": "T1, BMP4 (Homo sapiens, UniProt P12644)", "T1 sequence (P12644 293-408)": "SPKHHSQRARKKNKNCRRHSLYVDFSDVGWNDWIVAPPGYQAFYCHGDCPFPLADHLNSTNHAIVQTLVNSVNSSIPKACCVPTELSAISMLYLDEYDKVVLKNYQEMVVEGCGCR", "test": "BMP4 signal transduction inhibitory activity: SMAD1 phosphorylation by BMP4 stimulus, AlphaLISA SureFire, A549 cells", "type": "cell-based", "conditions": "inhibition of SMAD1 phosphorylation by BMP4 stimulus, A549 cells"}, "BMP7": {"biological_target": "T2, BMP7 (Homo sapiens, UniProt P18075)", "T2 sequence (P18075 293-431)": "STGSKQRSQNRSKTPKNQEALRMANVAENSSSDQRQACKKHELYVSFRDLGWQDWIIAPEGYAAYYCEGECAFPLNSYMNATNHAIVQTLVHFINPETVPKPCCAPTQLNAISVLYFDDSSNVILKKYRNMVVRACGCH", "test": "BMP7 signal transduction inhibitory activity: SMAD1 phosphorylation by BMP7 stimulus, A549 cells", "type": "cell-based", "conditions": "inhibition of SMAD1 phosphorylation by BMP7 stimulus, A549 cells", "summary_of_the_method": "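A549 cells were stimulated with 10 nM BMP7, and peptide inhibition of signalling was measured as SMAD1 phosphorylation. Peptides were tested at three concentrations, in sets ranging from 1–100 nM to 100–1,000 nM, or as eight-point 1/3 dilution series starting at 100 nM or 1,000 nM.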"}, "[1]": {"conditions": "AlphaLISA, class by peptide concentration zone"}, "[2]": {"conditions": "peptides of Synthesis 2, classes A-C, ND"}, "[3]": {"conditions": "peptides of Synthesis 2, classes A-D, ND"}},
  "note": "Numbered stars: 1 amine (or outer) side, 2 acyl side, 3 side chain; on linkers, the order of the positions; unused ones are H or OH. Bridge positions count the residues as written; N and C are the ends. Square brackets hold non-standard residues; d marks the D form. MeKCOpipzaa = N6-(4-(carboxymethyl)piperazine-1-carbonyl)-N2-methyl-L-lysine, CN([C@@H](CCCCNC(=O)N1CCN(CC(=O)[*:3])CC1)C(=O)[*:2])[*:1]; KCOpipzaa = N6-(4-(carboxymethyl)piperazine-1-carbonyl)-L-lysine, O=C(NCCCC[C@H](N[*:1])C(=O)[*:2])N1CCN(CC(=O)[*:3])CC1; Phe(4-COOH) = N[C@@H](Cc1ccc(C(=O)O)cc1)C(=O)O; Bip = N[C@@H](Cc1ccc(-c2ccccc2)cc1)C(=O)O; Phe(4-F) = N[C@@H](Cc1ccc(F)cc1)C(=O)O; 4Pal = N[C@@H](Cc1ccncc1)C(=O)O; βAla = NCCC(=O)O",
  "data": [
    {"substance": "62 (Ac-A[KCOpipzaa]VYVD[KCOpipzaa][Bip]PYP[Bip][4Pal][Phe(4-COOH)][Phe(4-COOH)]SCG-NH2; thioether (positions not given here); not fully specified (bridges)) [compound 62]", "values": [
      {"measurement": "aLISA BMP4", "setting": "BMP4; [1]", "value": "D (showed inhibitory activity of less than 50% in 2 nM-addition zone)"},
      {"measurement": "aLISA BMP7", "setting": "BMP7; [1]", "value": "ND (the inhibitory activity was less than 30% at the maximum concentration evaluated)"}
    ]},
    {"substance": "63 (Ac-E[KCOpipzaa]VYVDR[Bip]PYP[Bip]Y[Phe(4-COOH)][Phe(4-COOH)]SCG-NH2; thioether (positions not given here); not fully specified (bridges)) [compound 63]", "values": [
      {"measurement": "aLISA BMP4", "setting": "BMP4; [1]", "value": "A (showed an inhibitory activity of 50% or more in a zone to which the peptide was added to in an amount of 0.2 nM)"},
      {"measurement": "aLISA BMP7", "setting": "BMP7; [1]", "value": "C (showed less than 50% of inhibitory activity in 10 nM-addition zone and showed 50% or more of inhibitory activity in 100 nM-addition zone)"}
    ]},
    {"substance": "64 (Ac-E[KCOpipzaa]VYVD[KCOpipzaa][Bip]PYP[Bip]Y[Phe(4-COOH)][Phe(4-COOH)]SCG-NH2; thioether (positions not given here); not fully specified (bridges)) [compound 64]", "values": [
      {"measurement": "aLISA BMP4", "setting": "BMP4; [1]", "value": "C (showed an inhibitory activity of less than 50% in 0.2 nM-addition zone and showed an inhibitory activity of 50% or more in 2 nM-addition zone were defined as B or C)"},
      {"measurement": "aLISA BMP7", "setting": "BMP7; [1]", "value": "D (showed less than 50% of inhibitory activity in 100 nM-addition zone)"}
    ]},
    {"substance": "65 (Ac-E[KCOpipzaa]VYVDR[Bip]PYP[Bip][Phe(4-F)][Phe(4-COOH)][Phe(4-COOH)]SCG-NH2; thioether (positions not given here); not fully specified (bridges)) [compound 65]", "values": [
      {"measurement": "aLISA BMP4", "setting": "BMP4; [1]", "value": "A (showed an inhibitory activity of 50% or more in a zone to which the peptide was added to in an amount of 0.2 nM)"},
      {"measurement": "aLISA BMP7", "setting": "BMP7; [1]", "value": "C (showed less than 50% of inhibitory activity in 10 nM-addition zone and showed 50% or more of inhibitory activity in 100 nM-addition zone)"}
    ]},
    {"substance": "68 ({CH2CO}-E[KCOpipzaa]VYVD[KCOpipzaa][Bip]PYP[Bip][4Pal][Phe(4-COOH)][Phe(4-COOH)]SCG-NH2; thioether N-17; not fully specified) [compound 68]", "values": [
      {"measurement": "aLISA BMP4", "setting": "BMP4; [1]", "value": "D (showed inhibitory activity of less than 50% in 2 nM-addition zone)"},
      {"measurement": "aLISA BMP7", "setting": "BMP7; [1]", "value": "ND (the inhibitory activity was less than 30% at the maximum concentration evaluated)"}
    ]},
    {"substance": "70 ({CH2CO}-ARVYVDK[Bip]PYP[Bip]Y[Phe(4-COOH)][Phe(4-COOH)]SCG-NH2; thioether N-17; not fully specified) [compound 70]", "values": [
      {"measurement": "aLISA BMP4", "setting": "BMP4; [1]", "value": "A (showed an inhibitory activity of 50% or more in a zone to which the peptide was added to in an amount of 0.2 nM)"},
      {"measurement": "aLISA BMP7", "setting": "BMP7; [1]", "value": "C (showed less than 50% of inhibitory activity in 10 nM-addition zone and showed 50% or more of inhibitory activity in 100 nM-addition zone)"}
    ]},
    {"substance": "71 ({CH2CO}-ERVYVDR[Bip]PYP[Bip][Phe(4-F)][Phe(4-COOH)][Phe(4-COOH)]SCG-NH2; thioether N-17; not fully specified) [compound 71]", "values": [
      {"measurement": "aLISA BMP4", "setting": "BMP4; [1]", "value": "A (showed an inhibitory activity of 50% or more in a zone to which the peptide was added to in an amount of 0.2 nM)"},
      {"measurement": "aLISA BMP7", "setting": "BMP7; [1]", "value": "C (showed less than 50% of inhibitory activity in 10 nM-addition zone and showed 50% or more of inhibitory activity in 100 nM-addition zone)"}
    ]},
    {"substance": "72 ({CH2CO}-ERVYVDR[Bip]PYP[Bip][Phe(4-F)][Phe(4-COOH)][4Pal]SCG-NH2; thioether N-17; not fully specified) [compound 72]", "values": [
      {"measurement": "aLISA BMP4", "setting": "BMP4; [1]", "value": "A (showed an inhibitory activity of 50% or more in a zone to which the peptide was added to in an amount of 0.2 nM)"},
      {"measurement": "aLISA BMP7", "setting": "BMP7; [1]", "value": "C (showed less than 50% of inhibitory activity in 10 nM-addition zone and showed 50% or more of inhibitory activity in 100 nM-addition zone)"}
    ]},
    {"substance": "76 ({CH2CO}-E[KCOpipzaa]VYV[KCOpipzaa][KCOpipzaa][Bip]PYP[Bip][Phe(4-F)][Phe(4-COOH)][4Pal]SCG-NH2; thioether N-17; not fully specified) [compound 76]", "values": [
      {"measurement": "aLISA BMP4", "setting": "BMP4; [1]", "value": "C (showed an inhibitory activity of less than 50% in 0.2 nM-addition zone and showed an inhibitory activity of 50% or more in 2 nM-addition zone were defined as B or C)"},
      {"measurement": "aLISA BMP7", "setting": "BMP7; [1]", "value": "C (showed less than 50% of inhibitory activity in 10 nM-addition zone and showed 50% or more of inhibitory activity in 100 nM-addition zone)"}
    ]},
    {"substance": "77 ({CH2CO}-ERVYVDR[Bip][KCOpipzaa]YP[Bip][Phe(4-F)][Phe(4-COOH)][Phe(4-COOH)]SCG-NH2; thioether N-17; not fully specified) [compound 77]", "values": [
      {"measurement": "aLISA BMP4", "setting": "BMP4; [1]", "value": "A (showed an inhibitory activity of 50% or more in a zone to which the peptide was added to in an amount of 0.2 nM)"},
      {"measurement": "aLISA BMP7", "setting": "BMP7; [1]", "value": "C (showed less than 50% of inhibitory activity in 10 nM-addition zone and showed 50% or more of inhibitory activity in 100 nM-addition zone)"}
    ]},
    {"substance": "78 ({CH2CO}-ERVYVDR[Bip][KCOpipzaa]YP[Bip][Phe(4-F)][Phe(4-COOH)][4Pal]SCG-NH2; thioether N-17; not fully specified) [compound 78]", "values": [
      {"measurement": "aLISA BMP4", "setting": "BMP4; [1]", "value": "A (showed an inhibitory activity of 50% or more in a zone to which the peptide was added to in an amount of 0.2 nM)"},
      {"measurement": "aLISA BMP7", "setting": "BMP7; [1]", "value": "C (showed less than 50% of inhibitory activity in 10 nM-addition zone and showed 50% or more of inhibitory activity in 100 nM-addition zone)"}
    ]},
    {"substance": "79 ({CH2CO}-E[KCOpipzaa]VYVDR[Bip][KCOpipzaa]YP[Bip][Phe(4-F)][Phe(4-COOH)][Phe(4-COOH)]SCG-NH2; thioether N-17; not fully specified) [compound 79]", "values": [
      {"measurement": "aLISA BMP4", "setting": "BMP4; [2]", "value": "C (showed an inhibitory activity of less than 50% in 0.2 nM-addition zone and showed an inhibitory activity of 50% or more in 2 nM-addition zone were defined as B or C)"},
      {"measurement": "aLISA BMP7", "setting": "BMP7; [3]", "value": "D (showed less than 50% of inhibitory activity in 100 nM-addition zone)"}
    ]},
    {"substance": "80 ({CH2CO}-E[KCOpipzaa]VYVDR[Bip][KCOpipzaa]YP[Bip][Phe(4-F)][Phe(4-COOH)][4Pal]SCG-NH2; thioether N-17; not fully specified) [compound 80]", "values": [
      {"measurement": "aLISA BMP4", "setting": "BMP4; [2]", "value": "A (showed an inhibitory activity of 50% or more in a zone to which the peptide was added to in an amount of 0.2 nM)"},
      {"measurement": "aLISA BMP7", "setting": "BMP7; [3]", "value": "C (showed less than 50% of inhibitory activity in 10 nM-addition zone and showed 50% or more of inhibitory activity in 100 nM-addition zone)"}
    ]},
    {"substance": "81 ({CH2CO}-E[KCOpipzaa]VYVDR[Bip][MeKCOpipzaa]YP[Bip][Phe(4-F)][Phe(4-COOH)][4Pal]SCG-NH2; thioether N-17; not fully specified) [compound 81]", "values": [
      {"measurement": "aLISA BMP4", "setting": "BMP4; [2]", "value": "A (showed an inhibitory activity of 50% or more in a zone to which the peptide was added to in an amount of 0.2 nM)"},
      {"measurement": "aLISA BMP7", "setting": "BMP7; [3]", "value": "C (showed less than 50% of inhibitory activity in 10 nM-addition zone and showed 50% or more of inhibitory activity in 100 nM-addition zone)"}
    ]},
    {"substance": "85 ({CH2CO}-ERVYVDR[Bip]SYV[Bip]Y[Phe(4-COOH)][Phe(4-COOH)]SC[βAla][dE]-OH; thioether N-17; not fully specified) [compound 85]", "values": [
      {"measurement": "aLISA BMP4", "setting": "BMP4; [2]", "value": "A (showed an inhibitory activity of 50% or more in a zone to which the peptide was added to in an amount of 0.2 nM)"},
      {"measurement": "aLISA BMP7", "setting": "BMP7; [3]", "value": "C (showed less than 50% of inhibitory activity in 10 nM-addition zone and showed 50% or more of inhibitory activity in 100 nM-addition zone)"}
    ]}
  ]
}
